The record followed here is IntAct's records for PubMed 12193598.

First the molecules themselves.
B1: Palmitoyltransferase ERF2 (Saccharomyces cerevisiae), Q06551 (parent)
chain: MALVSRRSTRSESTSITKEEHTGEGSLTKLFFRWLVTLEGDQDINDGKGYISLPNVSNYIFFLGGRFRTVKGAKPLWLGVLLAIVCPMVLFSIFEAHKLWHTQNGYKVLVIFFYYFWVITLASFIRTATSDPGVLPRNIHLSQLRNNYQIPQEYYNLITLPTHSSISKDITIKYCPSCRIWRPPRSSHCSTCNVCVMVHDHHCIWVNNCIGKRNYRFFLIFLLGAILSSVILLTNCAIHIARESGGPRDCPVAILLLCYAGLTLWYPAILFTYHIFMAGNQQTTREFLKGIGSKKNPVFHRVVKEENIYNKGSFLKNMGHLMLEPRGPSFVSARKPHEAGDWRFMDLSPAHSFEKIQKI
partner: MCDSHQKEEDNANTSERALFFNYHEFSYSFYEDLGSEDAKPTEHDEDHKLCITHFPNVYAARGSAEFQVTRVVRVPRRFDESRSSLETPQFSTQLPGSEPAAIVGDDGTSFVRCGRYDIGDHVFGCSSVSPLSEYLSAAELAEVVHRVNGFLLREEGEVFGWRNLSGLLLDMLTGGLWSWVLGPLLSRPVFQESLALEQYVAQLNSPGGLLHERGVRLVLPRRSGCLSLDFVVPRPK

Variants of B1 are the subject of this assay. Particulars: with erfd_yeast SHR5, P41912.
Take C189S: the “effect of a mutation on the interaction” value is given as “disrupting interaction strength”. With H201A, the “effect of a mutation on the interaction” value is reported as “with no effect”.
